Common to all, as to assay: purified protein, by the assay type
Substrate in series [1]: CC(=O)NCCCC[C@H](NC(C)=O)C(N)=O
On the set-up: discontinuous LC-MS deacetylation assay, dansylated product quantified, steady-state kinetics. The conditions noted are these: 50.0 °C. The procedure:
(§1) To study steady-state kinetics with non-fluorogenic peptide substrates and acetylpolyamines, a discontinuous LC–MS was employed based on the protocol of assaying nonfluorogenic acetyllysine peptide substrates for HDAC6 (ref. [17]). Assays were performed in triplicate. Briefly, 5 μl of enzyme (0.050–20 μM) in HEPES buffer (20 mM HEPES (pH 7.5), 100 mM NaCl, 5 mM KCl, 1 mM MgCl2) was added to 35 μl of substrate solution to initiate the reaction. After incubation for 15–60 min at room temperature, the reaction was quenched by addition of 50 μl of 20 mM dansyl chloride dissolved in acetonitrile followed by 10 μl of NaHCO3 (1.6 M, pH 10.0). The deacetylation products were derivatized with dansyl chloride at 50 °C for 2 hrs. The deacetylation products were detected by LC–MS using a Waters SQD equipped with an Acquity UPLC (Waters, Milford, MA, USA) and quantified by using the standard curves generated from the mass signals of the corresponding deacetylated polyamines and peptides. Inhibition of HDAC10 activity was measured by using 0.49 μM zHDAC10 with 192 μM N^8-acetylspermidine. Data were analysed by logistic regression for IC50 determination and the inhibition constant Ki was calculated based on the Cheng-Prusoff equation, Ki=IC50 / (1+[S]/KM)[45]. Assays were performed in triplicate at room temperature.

Substrate in series [2]: CC(=O)NCCCCNCCCN
Also on record: steady-state kinetics of acetylpolyamine deacetylation, discontinuous LC-MS after dansyl chloride derivatization. To be noted: 50.0 °C. The procedure: as §1, with “temperature. We next tested the PDAC activity of hHDAC10 and zHDAC10 against several polyamine substrates using the LC–MS assay (Fig. 2, Supplementary Fig. 3 and Supplementary Table 1). […] For hHDAC10 and zHDAC10, kcat/KM=2,900±200 and 4,600±300 M^−1 s^−1, respectively; in comparison, N^1-acetylspermidine was a poor substrate with kcat/KM=24±5 and 7±2 M^−1 s^−1, respectively. Substrate specificity trends observed for zHDAC10 and hHDAC10 matched those of the previously reported mammalian N^8-acetylspermidine deacetylase activity. […] As a negative control, we examined the N^8-acetylspermidine deacetylase activity of human and zebrafish HDAC6 (ref. [17]). HDAC6 preferentially catalyses the deacetylation of the peptide substrate RGK(ac)-AMC with a catalytic efficiency >100-fold greater than that for the deacetylation of N^8-acetylspermidine. Therefore, HDAC6 is clearly an acetyllysine deacetylase and HDAC10 is an N^8-acetylspermidine deacetylase. It is notable that the molecular function of HDAC10 coincides with the cellular function of the cytosolic PDAC indicated in Fig. 1a.” for “temperature.”

Substrate in series [3]: CC(=O)NCCCCCCCCN
On the set-up: steady-state kinetics of acetylpolyamine deacetylation, discontinuous LC-MS after dansyl chloride derivatization. To be noted: 50.0 °C. The procedure: as §1, with “temperature. We next tested the PDAC activity of hHDAC10 and zHDAC10 against several polyamine substrates using the LC–MS assay (Fig. 2, Supplementary Fig. 3 and Supplementary Table 1). […] For hHDAC10 and zHDAC10, kcat/KM=2,900±200 and 4,600±300 M^−1 s^−1, respectively; in comparison, N^1-acetylspermidine was a poor substrate with kcat/KM=24±5 and 7±2 M^−1 s^−1, respectively. Substrate specificity trends observed for zHDAC10 and hHDAC10 matched those of the previously reported mammalian N^8-acetylspermidine deacetylase activity. […] As a negative control, we examined the N^8-acetylspermidine deacetylase activity of human and zebrafish HDAC6 (ref. [17]). HDAC6 preferentially catalyses the deacetylation of the peptide substrate RGK(ac)-AMC with a catalytic efficiency >100-fold greater than that for the deacetylation of N^8-acetylspermidine. Therefore, HDAC6 is clearly an acetyllysine deacetylase and HDAC10 is an N^8-acetylspermidine deacetylase. It is notable that the molecular function of HDAC10 coincides with the cellular function of the cytosolic PDAC indicated in Fig. 1a.” for “temperature.”

Substrate in series [4]: CC(=O)NCCCNCCCCN
Also on record: steady-state kinetics of acetylpolyamine deacetylation, discontinuous LC-MS after dansyl chloride derivatization. To be noted: 50.0 °C. As for the experimental part: as §1, with “temperature. We next tested the PDAC activity of hHDAC10 and zHDAC10 against several polyamine substrates using the LC–MS assay (Fig. 2, Supplementary Fig. 3 and Supplementary Table 1). […] For hHDAC10 and zHDAC10, kcat/KM=2,900±200 and 4,600±300 M^−1 s^−1, respectively; in comparison, N^1-acetylspermidine was a poor substrate with kcat/KM=24±5 and 7±2 M^−1 s^−1, respectively. Substrate specificity trends observed for zHDAC10 and hHDAC10 matched those of the previously reported mammalian N^8-acetylspermidine deacetylase activity. […] As a negative control, we examined the N^8-acetylspermidine deacetylase activity of human and zebrafish HDAC6 (ref. [17]). HDAC6 preferentially catalyses the deacetylation of the peptide substrate RGK(ac)-AMC with a catalytic efficiency >100-fold greater than that for the deacetylation of N^8-acetylspermidine. Therefore, HDAC6 is clearly an acetyllysine deacetylase and HDAC10 is an N^8-acetylspermidine deacetylase. It is notable that the molecular function of HDAC10 coincides with the cellular function of the cytosolic PDAC indicated in Fig. 1a.” for “temperature.”

Substrate in series [5]: CC(=O)NCCCNCCCCNCCCN
Also on record: steady-state kinetics of acetylpolyamine deacetylation, discontinuous LC-MS after dansyl chloride derivatization. The conditions noted are these: 50.0 °C. As for the experimental part:
as §1, with “temperature. We next tested the PDAC activity of hHDAC10 and zHDAC10 against several polyamine substrates using the LC–MS assay (Fig. 2, Supplementary Fig. 3 and Supplementary Table 1). […] For hHDAC10 and zHDAC10, kcat/KM=2,900±200 and 4,600±300 M^−1 s^−1, respectively; in comparison, N^1-acetylspermidine was a poor substrate with kcat/KM=24±5 and 7±2 M^−1 s^−1, respectively. Substrate specificity trends observed for zHDAC10 and hHDAC10 matched those of the previously reported mammalian N^8-acetylspermidine deacetylase activity. […] As a negative control, we examined the N^8-acetylspermidine deacetylase activity of human and zebrafish HDAC6 (ref. [17]). HDAC6 preferentially catalyses the deacetylation of the peptide substrate RGK(ac)-AMC with a catalytic efficiency >100-fold greater than that for the deacetylation of N^8-acetylspermidine. Therefore, HDAC6 is clearly an acetyllysine deacetylase and HDAC10 is an N^8-acetylspermidine deacetylase. It is notable that the molecular function of HDAC10 coincides with the cellular function of the cytosolic PDAC indicated in Fig. 1a.” for “temperature.”

Substrate in series [6]: CC(=O)NCCCCCN
On the set-up: steady-state kinetics of acetylpolyamine deacetylation, discontinuous LC-MS after dansyl chloride derivatization. The conditions noted are these: 50.0 °C. As for the experimental part:
as §1, with “temperature. We next tested the PDAC activity of hHDAC10 and zHDAC10 against several polyamine substrates using the LC–MS assay (Fig. 2, Supplementary Fig. 3 and Supplementary Table 1). […] For hHDAC10 and zHDAC10, kcat/KM=2,900±200 and 4,600±300 M^−1 s^−1, respectively; in comparison, N^1-acetylspermidine was a poor substrate with kcat/KM=24±5 and 7±2 M^−1 s^−1, respectively. Substrate specificity trends observed for zHDAC10 and hHDAC10 matched those of the previously reported mammalian N^8-acetylspermidine deacetylase activity. […] As a negative control, we examined the N^8-acetylspermidine deacetylase activity of human and zebrafish HDAC6 (ref. [17]). HDAC6 preferentially catalyses the deacetylation of the peptide substrate RGK(ac)-AMC with a catalytic efficiency >100-fold greater than that for the deacetylation of N^8-acetylspermidine. Therefore, HDAC6 is clearly an acetyllysine deacetylase and HDAC10 is an N^8-acetylspermidine deacetylase. It is notable that the molecular function of HDAC10 coincides with the cellular function of the cytosolic PDAC indicated in Fig. 1a.” for “temperature.”

Substrate in series [7]: CC(=O)NCCCN
Also on record: steady-state kinetics of acetylpolyamine deacetylation, discontinuous LC-MS after dansyl chloride derivatization. The conditions noted are these: 50.0 °C. As for the experimental part:
as §1, with “temperature. We next tested the PDAC activity of hHDAC10 and zHDAC10 against several polyamine substrates using the LC–MS assay (Fig. 2, Supplementary Fig. 3 and Supplementary Table 1). […] For hHDAC10 and zHDAC10, kcat/KM=2,900±200 and 4,600±300 M^−1 s^−1, respectively; in comparison, N^1-acetylspermidine was a poor substrate with kcat/KM=24±5 and 7±2 M^−1 s^−1, respectively. Substrate specificity trends observed for zHDAC10 and hHDAC10 matched those of the previously reported mammalian N^8-acetylspermidine deacetylase activity. […] As a negative control, we examined the N^8-acetylspermidine deacetylase activity of human and zebrafish HDAC6 (ref. [17]). HDAC6 preferentially catalyses the deacetylation of the peptide substrate RGK(ac)-AMC with a catalytic efficiency >100-fold greater than that for the deacetylation of N^8-acetylspermidine. Therefore, HDAC6 is clearly an acetyllysine deacetylase and HDAC10 is an N^8-acetylspermidine deacetylase. It is notable that the molecular function of HDAC10 coincides with the cellular function of the cytosolic PDAC indicated in Fig. 1a.” for “temperature.”

Substrate in series [8]: CC(=O)NCCCC[C@H](NC(=O)[C@H](C)NC(=O)CNC(C)=O)C(=O)Nc1ccc2c(C)cc(=O)oc2c1
Also on record: fluorogenic AMC-conjugated acetyllysine peptide deacetylation, steady-state kinetics. The source says:
To determine steady-state kinetic parameters for the hydrolysis of a variety of acetylpolyamine and acetyllysine substrates, we prepared full-length recombinant HDAC10 from human (H. sapiens, hHDAC10) and zebrafish (D. rerio, zHDAC10). The CDs of these orthologues are highly similar based on 63%/79% sequence identity/similarity; only full-length constructs yielded soluble proteins. We first assayed the lysine deacetylase activity of these constructs against two commercially available aminomethylcoumarin (AMC)-conjugated fluorogenic acetyllysine peptides, GAK(ac)-AMC and RGK(ac)-AMC (molecular structures of all substrates are shown in Supplementary Fig. 2). […] These measurements were consistent with earlier studies reporting that HDAC10 activity was not measurable using fluorogenic peptide substrates. We also tested activity with 11 non-fluorogenic acetyllysine substrates using a […] chromatography–mass spectrometry (LC–MS)-based discontinuous assay[17] to avoid potential steric clashes that might occur with the bulky AMC group. These substrates included K(ac)NL and GAK(ac)NLQ, which mimic the peptide segment containing K73 in the proposed HDAC10 substrate MutS homologue 2 (MSH2)[22]. Again, we observed no or very low catalytic activity (Fig. 2 and Supplementary Table 1). In comparison with its closest relative, the cytosolic isozyme HDAC6 (ref. [17]), HDAC10 was clearly not an efficient lysine deacetylase.

B1: acetylpolyamine amidohydrolase (APAH) (Mycoplana ramosa) (protein)
chain: MRVIFSEDHKLRNAKTELYGGELVPPFEAPFRAEWILAAVKEAGFDDVVAPARHGLETVLKVHDAGYLNFLETAWDRWKAAGYKGEAIATSFPVRRTSPRIPTDIEGQIGYYCNAAETAISPGTWEAALSSMASAIDGADLIAAGHKAAFSLCRPPGHHAGIDMFGGYCFINNAAVAAQRLLDKGAKKIAILDVDFHHGNGTQDIFYERGDVFFASLHGDPAEAFPHFLGYAEETGKGAGAGTTANYPMGRGTPYSVWGEALTDSLKRIAAFGAEAIVVSLGVDTFEQDPISFFKLTSPDYITMGRTIAASGVPLLVVMEGGYGVPEIGLNVANVLKGVAG
As for B1, the Km was determined as 220 ± 70 µM in series [1]; 80 ± 20 µM in series [2]; 110 ± 20 µM in series [3]; 70 ± 20 µM in series [4]; 60 ± 10 µM in series [5]; 22 ± 4 µM in series [6]. Further, the Michaelis-Menten constant (Km) worked out at 180 ± 60 µM in series [7] and 120 ± 20 µM in series [8]. The kcat in series [1] worked out at 0.13 ± 0.02 s⁻¹; in series [2], 2.5 ± 0.3 s⁻¹; in series [3], 1.1 ± 0.1 s⁻¹; in series [4] it was 0.6 ± 0.05 s⁻¹; in series [5], 0.2 ± 0.01 s⁻¹; in series [6] it was 1.5 ± 0.1 s⁻¹. In addition, the turnover number (kcat) in series [7] was found to be 1.3 ± 0.2 s⁻¹; in series [8], 0.0067 ± 0.0005 s⁻¹. Also, the kcat/Km in series [1] is 600 ± 100 M⁻¹ s⁻¹; in series [2], 30000 ± 5000 M⁻¹ s⁻¹; in series [3], 10000 ± 1000 M⁻¹ s⁻¹; in series [4], 7400 ± 600 M⁻¹ s⁻¹; in series [5], 2500 ± 900 M⁻¹ s⁻¹; in series [6] it was 68000 ± 7000 M⁻¹ s⁻¹. For the same protein, the results for the catalytic efficiency (kcat/Km) in series [7] and in series [8] were 7000 ± 1000 M⁻¹ s⁻¹ and 50 ± 5 M⁻¹ s⁻¹, respectively.

By Km is commonly meant the concentration of substrate that gives half-maximal velocity. One may read the kcat as the maximal rate divided by the concentration of active sites. For orientation: kcat/Km means the second-order rate constant that governs catalysis at low substrate concentration.
